Source: US20170304407

Target: prothrombin

B1: oscutarin C (OsPA), Group C prothrombin activator purified from Oxyuranus scutellatus (Coastal Taipan) venom, preparation 17 Apr. 2012 (protein)
chain 1: ANSLYEEFRSGNIERECIEERCSKEEAREVFEDDEKTETFWNVYVDGDQCSSNPCHYRGTCKDGIGSYTCTCLSGYEGKNCERVLYKSCRVDNGNCWHFCKPVQNDIQCSCAEGYLLGEDGHSCVAGGNFSCGRNIKTRNKREASLPDFVQSQNAILLKKSDNPSPDIRIVNGMDCKLGECPWQAVLVDEKEDAFCGGTILSPIYVLTAAHCINQTKMISVVVGEINISRKNPGRLLSVDKIYVHQKFVPPKKGYEFYEKFDLVSYDYDIAILQMKTPIQFSENVVPACLPTADFANQVLMKQDFGIVSGFGRIFEKGPQSKTLKVLKVPYVDRHTCMLSSESPITPTMFCAGYDTLPRDACQGDSGGPHITAYRDTHFITGIVSWGEGCAQTGKYGVYTKVSKFILWIKRIMRQKLPSTESSTGRL
chain 2: AQLREYRLAAQLEDWDYNPQPEELSRLSESDLTFKKIVYREYELDFKQEKPRDELSGLLGPTLRGEVGDSLIIYFKNFATQPVSIHPQSAVYNKWSEGSSYSDGTSDVERLDDAVPPGQSFKYVWNITAEIGPKKADPPCLTYAYYSHVNMVRDFNSGLIGALLICKEGSLNADGAQKFFNREYVLMFSVFDESKNWYRKPSLQYTINGFANGTLPDVQACAYDHISWHLIGMSSSPEIFSVHFNGQTLEQNHYKVSTINLVGGASVTANMSVSRTGKWLISSLVAKHLQAGMYGYLNIKDCGNPDTLTRKLSFRERRRIMKWEYFIAAEEITWDYAPEIPSSVDRRYKAQYLDNFSNFIGKKYKKAVFRQYEDSNFTKPTYAIWPKERGILGPVIKAKVRDTVTIVFKNLASRPYSIYVHGVSVSKDAEGAVYPSDPKENITHGKAVEPGQVYTYKWTVLDTDEPTVKDSECITKLYHSAVDMTRDIASGLIGPPLVCKRKALSIRGVQNKADVEQHAVFAVFDENKSWYLEDNIKKYCSNPSSVKKDDPKFYKSNVMYTLNGYASDRTEVWGFHQSEVVEWHLTSVGTVDEIVPVHLSGHTFLSKGKHQDILNLFPMSGESATVTMDNLGTWLLSSWGSCEMSNGMRLRFLDANYDDEDEGNEEEEEDDGDIFADIFNPPEVVIKKEEVPVNFVPDPESDALAKELGLFDDEDNPKQSRSEQTEDDEEQLMIASMLGLRSFKGSVAEEELKHTALALEEDAHASDPRIDSNSAHNSDDIAGRYLRTINRRNKRRYYIAAEEVLWDYSPIGKSQVRSLPAKTTFKKAIFRSYLDDTFQTPSTGGEYEKHLGILGPIIRAEVDDVIEVQFRNLASRPYSLHAHGLLYEKSSEGRSYDDNSPELFKKDDAIMPNGTYTYVWQVPPRSGPTDNTEKCKSWAYYSGVNPEKDIHSGLIGPILICQKGMIDKYNRTIDIREFVLFFMVFDEEKSWYFPKSDKSTCEEKLIGVQSRHTFPAINGIPYQLQGLMMYKDENVHWHLLNMGGPKDVHVVNFHGQTFTEEGREDNQLGVLPLLPGTFASIKMKPSKIGTWLLETEVGENQERGMQALFTVIDKDCKLPMGLASGIIQDSQISASGHVGYWEPKLARLNNTGMFNAWSIIKKEHEHPWIQIDLQRQVVITGIQTQGTVQLLKHSYTVEYFVTYSKDGQNWITFKGRHSKTQMHFEGNSDGTTVKENHIDPPIIARYIRLHPTKFYNTPTFRIELLGCEVEGCSVPLGMESGAIKDSEITASSYKKTWWSSWEPFLARLNLKGRTNAWQPKVNNKDQWLQIDLQHLTKITSIITQGATSMTTSMYVKTFSIHYTDDNSTWKPYLDVRTSMEKVFTGNINSDGHVKHFFNPPILSRFIRIIPKTWNQYIALRIELFGCEVF
rate of prothrombin activation in the S-2238 two-stage assay (thrombin produced against sampling time): (eg) (9.98e-6 umol/min) | specific activity of the prothrombin activator (rate of thrombin production against OsPA concentration): (eg) (5.0e-3 units/mg)
